The record followed here is IntAct's records for PubMed 17981123.

The labels stand for the following.
B1: Serine endoprotease DegS (Escherichia coli (strain K12)), P0AEE3 (parent)
chain: MFVKLLRSVAIGLIVGAILLVAMPSLRSLNPLSTPQFDSTDETPASYNLAVRRAAPAVVNVYNRGLNTNSHNQLEIRTLGSGVIMDQRGYIITNKHVINDADQIIVALQDGRVFEALLVGSDSLTDLAVLKINATGGLPTIPINARRVPHIGDVVLAIGNPYNLGQTITQGIISATGRIGLNPTGRQNFLQTDASINHGNSGGALVNSLGELMGINTLSFDKSNDGETPEGIGFAIPFQLATKIMDKLIRDGRVIRGYIGIGGREIAPLHAQGGGIDQLQGIVVNEVSPDGPAANAGIQVNDLIISVDNKPAISALETMDQVAEIRPGSVIPVVVMRDDKQLTLQVTIQEYPATN
partner: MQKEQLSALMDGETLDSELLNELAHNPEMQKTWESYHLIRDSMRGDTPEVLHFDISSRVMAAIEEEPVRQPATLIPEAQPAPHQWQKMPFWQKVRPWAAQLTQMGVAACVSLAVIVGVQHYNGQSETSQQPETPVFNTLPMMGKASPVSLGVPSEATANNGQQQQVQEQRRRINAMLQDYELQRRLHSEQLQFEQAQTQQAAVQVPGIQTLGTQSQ

In this experiment the parent is B1. The note with it: with rsea_ecoli rseA.
As for MFVKLLRSVAIGLIVGAILLVAMPSLRSLNPLSTPQFDSTDETPASYNLAVRRAAPAVVNVYNRGLNTNSHNQLEIRTLGSGVIMDQRGYIITNKHVINDADQIIVALQDGRVFEALLVGSDSLTDLAVLKINATGGLPTIPINARRVPHIGDVVLAIGNPYNLGQTITQGIISATGRIGLNPTGRQNFLQTDASINHGNSGGALVNSLGELMGINTLSFDKSNDGETPEGIGFAIPFQLATKIMDKLIRDGRVIRGYIGIGGREIAPLHAQGGGIDQLQGIVVNEVSPDGPAANAGIQVNDLIISVDNKPAISALETMAQVAEIRPGSVIPVVVMRDDKQLTLQVTIQEYPATN [D320A], the “effect of a mutation on the interaction” value is reported as “increasing interaction”.

Turning to MFVKLLRSVAIGLIVGAILLVAMPSLRSLNPLSTPQFDSTDETPASYNLAVRRAAPAVVNVYNRGLNTNSHNQLEIRTLGSGVIMDQRGYIITNKHVINDADQIIVALQDGRVFEALLVGSDSLTDLAVLKINATGGLPTIPINARRVPHIGDVVLAIGNPANLGQTITQGIISATGRIGLNPTGRQNFLQTDASINHGNSGGALVNSLGELMGINTLSFDKSNDGETPEGIGFAIPFQLATKIMDKLIRDGRVIRGYIGIGGREIAPLHAQGGGIDQLQGIVVNEVSPDGPAANAGIQVNDLIISVDNKPAISALETMDQVAEIRPGSVIPVVVMRDDKQLTLQVTIQEYPATN [Y162A], the “effect of a mutation on the interaction” value was “disrupting interaction”.

Turning to MFVKLLRSVAIGLIVGAILLVAMPSLRSLNPLSTPQFDSTDETPASYNLAVRRAAPAVVNVYNRGLNTNSHNQLEIRTLGSGVIMDQRGYIITNKHVINDADQIIVALQDGRVFEALLVGSDSLTDLAVLKINATGGLPTIPINARRVPHIGDVVLAIGNPFNLGQTITQGIISATGRIGLNPTGRQNFLQTDASINHGNSGGALVNSLGELMGINTLSFDKSNDGETPEGIGFAIPFQLATKIMDKLIRDGRVIRGYIGIGGREIAPLHAQGGGIDQLQGIVVNEVSPDGPAANAGIQVNDLIISVDNKPAISALETMDQVAEIRPGSVIPVVVMRDDKQLTLQVTIQEYPATN [Y162F], the “effect of a mutation on the interaction” value is “decreasing interaction”.

For the variant MFVKLLRSVAIGLIVGAILLVAMPSLRSLNPLSTPQFDSTDETPASYNLAVRRAAPAVVNVYNRGLNTNSHNQLEIRTLGSGVIMDQRGYIITNKHVINDADQIIVALQDGRVFEALLVGSASLTDLAVLKINATGGLPTIPINARRVPHIGDVVLAIGNPYNLGQTITQGIISATGRIGLNPTGRQNFLQTDASINHGNSGGALVNSLGELMGINTLSFDKSNDGETPEGIGFAIPFQLATKIMDKLIRDGRVIRGYIGIGGREIAPLHAQGGGIDQLQGIVVNEVSPDGPAANAGIQVNDLIISVDNKPAISALETMDQVAEIRPGSVIPVVVMRDDKQLTLQVTIQEYPATN [D122A], the “effect of a mutation on the interaction” value is on record as “decreasing interaction”.

Consider MFVKLLRSVAIGLIVGAILLVAMPSLRSLNPLSTPQFDSTDETPASYNLAVRRAAPAVVNVYNRGLNTNSHNQLEIRTLGSGVIMDQRGYIITNKHVINDADQIIVALQDGRVFEALLVGSDSLTDLAVLKINATGGLPTIPINARRVPHIGDVVLAIGNPYNLGQTITQGIISATGRIGLNPTGRQNFLQTDASINHGNSGGALVNSLGELMGINTLSFDKSNDGETPEGIGFAIPFQLATDIMDKLIRDGRVIRGYIGIGGREIAPLHAQGGGIDQLQGIVVNEVSPDGPAANAGIQVNDLIISVDNKPAISALETMDQVAEIRPGSVIPVVVMRDDKQLTLQVTIQEYPATN [K243D], for which the “effect of a mutation on the interaction” value is “increasing interaction”.

As for MFVKLLRSVAIGLIVGAILLVAMPSLRSLNPLSTPQFDSTDETPASYNLAVRRAAPAVVNVYNRGLNTNSHNQLEIRTLGSGVIMDQRGYIITNKHVINDADQIIVALQDGRVFEALLVGSDSLTDLAVLKINATGGLPTIPINARRVPHIGDVVLAIGNPYNLGQTITQGIISATGRIGLNPTGRQNFLQTDASINHGNSGGALVNSLGELMGINTLSFDKSNDGETPEGIGFAIPFQLATKIMDKLIRDGRVIDGYIGIGGREIAPLHAQGGGIDQLQGIVVNEVSPDGPAANAGIQVNDLIISVDNKPAISALETMDQVAEIRPGSVIPVVVMRDDKQLTLQVTIQEYPATN [R256D], the “effect of a mutation on the interaction” value was “decreasing interaction”.

Turning to MFVKLLRSVAIGLIVGAILLVAMPSLRSLNPLSTPQFDSTDETPASYNLAVRRAAPAVVNVYNRGLNTNSHNQLEIRTLGSGVIMDQRGYIITNKHVINDADQIIVALQDGRVFEALLVGSDSLTDLAVLKINATGGLPTIPINARRVPHIGDVVLAIGNPYNLGQTITQGIISATGRIGLNPTGRQNFLQTDASINHGNSGGALVNSLGELMGINTLSFDKSNDGETPEGIGFAIPFQLATKIMDKLIRDGRVIAGYIGIGGREIAPLHAQGGGIDQLQGIVVNEVSPDGPAANAGIQVNDLIISVDNKPAISALETMDQVAEIRPGSVIPVVVMRDDKQLTLQVTIQEYPATN [R256A], the “effect of a mutation on the interaction” value is listed as “increasing interaction”.

As to MFVKLLRSVAIGLIVGAILLVAMPSLRSLNPLSTPQFDSTDETPASYNLAVRRAAPAVVNVYNRGLNTNSHNQLEIRTLGSGVIMDQRGYIITNKHVINDADQIIVALQDGRVFEALLVGSDSLTDLAVLKINATGGLPTIPINARRVPHIGDVVLAIGNPYNLGQTITQGIISATGAIGLNPTGRQNFLQTDASINHGNSGGALVNSLGELMGINTLSFDKSNDGETPEGIGFAIPFQLATKIMDKLIRDGRVIRGYIGIGGREIAPLHAQGGGIDQLQGIVVNEVSPDGPAANAGIQVNDLIISVDNKPAISALETMDQVAEIRPGSVIPVVVMRDDKQLTLQVTIQEYPATN [R178A], the “effect of a mutation on the interaction” value is “decreasing interaction”.

Consider MFVKLLRSVAIGLIVGAILLVAMPSLRSLNPLSTPQFDSTDETPASYNLAVRRAAPAVVNVYNRGLNTNSHNQLEIRTLGSGVIMDQRGYIITNKHVINDADQIIVALQDGRVFEALLVGSDSLTDLAVLKINATGGLPTIPINARRVPHIGDVVLAIGNPYNLGQTITQGIISATGRIGLNPTGRQNFLQTDASINHGNSGGALVNSLGELMGINTLSFDKSNDGATPEGIGFAIPFQLATKIMDKLIRDGRVIRGYIGIGGREIAPLHAQGGGIDQLQGIVVNEVSPDGPAANAGIQVNDLIISVDNKPAISALETMDQVAEIRPGSVIPVVVMRDDKQLTLQVTIQEYPATN [E227A], for which the “effect of a mutation on the interaction” value is reported as “increasing interaction”.
